Source: PMC4550792
One block for each substance: values may come before it.

What was measured:
[1] = target: Gαs-Rluc8 (UniProt P63092); assay: FRET or BRET; BRET in live HEK 293 cells transiently co-expressing Gαs-Rluc8 with Venus-Gγ2 or Venus-Gβ1 in the presence of hFSHR or hLHR; read every 0.5 s before and after injection of 10 nM hFSH or hCG; 96-well format
[2] = target: hLHR-Rluc8 (human) (UniProt P22888)
[3] = target: human luteinizing hormone receptor (wildtype) (human) (UniProt P22888)
[4] = target: FSHR/AVPR2-CT chimera

UniProt P63092, sequence (P63092 whole entry): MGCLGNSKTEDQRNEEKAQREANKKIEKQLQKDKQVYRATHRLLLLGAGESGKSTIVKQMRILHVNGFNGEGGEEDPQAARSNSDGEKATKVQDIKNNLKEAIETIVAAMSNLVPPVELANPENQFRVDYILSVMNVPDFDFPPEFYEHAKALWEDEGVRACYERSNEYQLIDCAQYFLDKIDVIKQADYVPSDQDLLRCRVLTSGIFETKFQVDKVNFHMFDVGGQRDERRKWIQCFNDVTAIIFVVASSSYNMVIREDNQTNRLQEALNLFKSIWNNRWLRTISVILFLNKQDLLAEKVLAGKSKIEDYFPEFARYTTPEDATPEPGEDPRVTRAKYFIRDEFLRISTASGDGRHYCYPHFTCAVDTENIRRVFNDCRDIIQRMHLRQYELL
Venus-Gγ2, sequence (P59768 whole entry): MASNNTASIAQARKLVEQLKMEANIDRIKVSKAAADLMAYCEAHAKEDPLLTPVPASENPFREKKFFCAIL

- t1/2 of the hFSH-induced BRET decrease (with hFSHR) [1]: 16.8 s
Substance: Venus-Gγ2 (from UniProt P59768 1-71) (natural protein)

- receptor internalization, decrease of BRET between hLHR-Rluc8 and the plasma membrane marker Venus-KRas in HEK 293 cells; EC50 of hCG [2]: 4.9 nM
- cAMP accumulation, HTRF assay in HEK 293 cells expressing hLHR; EC50 of hCG [3]: 1.9 pM
- cAMP production, BRET sensor CAMYEL in HEK 293 cells expressing hLHR; EC50 of hCG [3]: 3.5 pM
Substance: human chorionic gonadotropin (from UniProt P01215 25-116; P0DN86 21-165) (ligand)

- TANGO assay (tTA-dependent firefly luciferase reporter in HTLA cells, 14–20 h with increasing hFSH); EC50 of hFSH [4]: 5.7 nM
Substance: β-arrestin 2-TEV fusion protein (from UniProt P32121 1-409) (natural protein)
